Measurements: the supplement of paper PMC10567573
± gives the standard deviation.

Test: protein stability index of a GFP-peptide fusion (GPS, HEK-293T) (PSI 1-6); higher = more stable
Conditions: c terminus: a fixed tail appended
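Note: 24-mer peptide tiles fused after GFP, lentivirally expressed, FACS-sorted into six equal bins by GFP/DsRed ratio, decoded by Illumina sequencing, PSI is the read-weighted mean bin number.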

Sequence | protein stability index (treatment: DMSO) | protein stability index (treatment: MLN4924 1 uM, 8 h)
SSLSSESSESSDAGLCMDSPSPMD [CDC25B] | 5.462 ± 0.013 | 5.37 ± 0.23
ALVGCVISDNPERYSTNLSNHVDD [EDNRA] | 3.94 ± 0.44 | 4.16 ± 0.16
STSLLTSAGNRTHKARTRPKARKQ [ADAMTSL2] | 4.89 ± 0.35 | 4.92 ± 0.25
FMEKRNQWLVSQLSAASPDTGHDS [TRAF3IP2] | 2.76 ± 0.34 | 3.21 ± 0.58
DEPSKPTLALEYTYGRRAKGHNTP [DYNC2LI1] | 4.48 ± 0.23 | 4.65 ± 0.21
KMAAFHGAGLKRYLLTVMAAAAKA [ADAMTS4] | 2.43 ± 0.21 | 2.58 ± 0.5
GLSLTDESDSCVSFEAPLTPLIQQ [PSD2] | 4.29 ± 0.35 | 4.15 ± 0.29
KEACDQHGPDLYPKFKKWCDDYFF [CPOX] | 2.31 ± 0.27 | 2.58 ± 0.32
VDGDQSKILISGLEPSTPYRFLLY [TNXB] | 2.41 ± 0.45 | 2.21 ± 0.48
KMNPKLKTLLAIGGWNFSTQKFTD [CHIT1] | 2.37 ± 0.11 | 2.3 ± 0.39
AAEQAERSQSSIVPEEEQAANKGE [SMARCE1] | 5.51 ± 0.3 | 5.54 ± 0.19
RSREARSRLLLLEQELKTVTYSLL [SMAD6] | 2.61 ± 0.36 | 2.5 ± 0.33
KTYQETPEIDMFLNVATFLDPRYK [ZBED1] | 2.38 ± 0.36 | 2.56 ± 0.32
RRVGILGEELADVGGVLRGLNHSL [SCARA5] | 2.9 ± 0.095 | 2.94 ± 0.3
NKTWREQYLRLPDAPEQRLRVMTT [ELOA2] | 3.26 ± 0.31 | 3.19 ± 0.48
DHSEHLSGSSYRDALQRYGTSHGA [RBMY1A1] | 3.89 ± 0.12 | 4.37 ± 0.38
LARPECLFLLLGHGASPGLRDGGG [ANKRD9] | 2.29 ± 0.54 | 2.19 ± 0.23
QMPQEEVELLPPAPKGKGRKPAAG [BRD3] | 4.98 ± 0.39 | 5.1 ± 0.18
FTQPLLPAFTVWCGSFQVTTGLQV [FSD1] | 3 ± 0.12 | 3.03 ± 0.5
PQSPPSCRAPPPEARGIRAPPLPD [FCHO1] | 4.92 ± 0.12 | 5.09 ± 0.24
GDFWRMIWEQRSATVVMMTKLEER [PTPRD] | 2.77 ± 0.38 | 2.36 ± 0.18
GGIIAPFIPSLKYVQWSLPFIVFG [SLC22A15] | 2.75 ± 0.39 | 2.86 ± 0.32

Sequence | protein stability index (treatment: DMSO) | protein stability index (treatment: MLN4924 1 uM, 8 h)
LGLLDDYLEVAKHFKPHGFSSDKA [ATF4] | 2.89 ± 0.19 | 3.07 ± 0.91
EVCYEDLGCFSDTEPWGGTAIRPL [PNLIPRP1] | 3.18 ± 0.19 | 3.54 ± 0.66
LESIPSLSQSPEPGRRGDPDTAPP [RTN2] | 5.49 ± 0.12 | 5.535 ± 0.045
VAWCYYSVSLRKAERLRAELLDLK [MYORG] | 2.35 ± 0.42 | 2.15 ± 0.47
QVKASSPVPATPILQLEECCTHNN [TRIM9] | 4.9 ± 0.21 | 4.923 ± 0.028
IQKNKLKLTREQEELEEALEVERQ [MNAT1] | 5.23 ± 0.31 | 5.24 ± 0.17
GCGADSKKKRPPQPPEESQPPQSQ [PLK2] | 5.52 ± 0.35 | 5.53 ± 0.18
GPVAGLDDSGGPTPSSYAPSHPPR [ZBTB22] | 4.92 ± 0.15 | 4.79 ± 0.13
MASSPIQPRKGGADWLGLKDEDLD [FBF1] | 5.12 ± 0.37 | 5.07 ± 0.26
HADILAAVETRLSLLNMTFMKYVD [FBXO28] | 2.84 ± 0.69 | 2.75 ± 0.65
LTSELDPEKEQEIETIKIIETEDQ [MIA2] | 4.84 ± 0.051 | 5.46 ± 0.33
FENGQKAAVVHHFESFPAGSTLIF [TOR1AIP2] | 2.05 ± 0.42 | 2.12 ± 0.2
LLLSFWKETDPLTFNFISSLKAIC [PLD5] | 3.47 ± 0.96 | 2.44 ± 0.12
GALETRSLKDHKVSFLRSGTKLIF [C2CD2L] | 2.13 ± 0.24 | 2.1 ± 0.42
DFLAVLSDYPSPDISPPIFRRGEK [SLA] | 2.63 ± 0.18 | 2.75 ± 0.51
KKAYDYFQAKKIPIVSSLADPLDT [PDZK1] | 3.64 ± 0.23 | 3.88 ± 0.35
ELSSVHPPHYFFTYRIRIEMSKDA [FBXO3] | 2.15 ± 0.21 | 2.18 ± 0.42
EEETYKCLECGKSFCHGSSLKRHL [ZNF449] | 3.77 ± 0.5 | 3.78 ± 0.79
WSLYPSDSQVSEEVKTRHSEKSQR [CHGB] | 4.78 ± 0.17 | 4.8 ± 0.19
AKALNRPPTYPTKYFGCELGAQTQ [EIF5] | 2.71 ± 0.23 | 3.15 ± 0.13
SWARPRPDEERPLRRPRPVQRTQS [RASAL3] | 4.46 ± 0.36 | 4.57 ± 0.26
DCSFPGLPRHQDQPHHQPPNRAGA [TRAF3IP2] | 4.91 ± 0.062 | 5.03 ± 0.14
